Data published in the nanobody polyreactivity screen of Harvey et al. (2022).

Test: yeast display, Sf9 membrane polyspecificity reagent, FACS + sequencing; frameworks hold sequencing errors
How it was run: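 A synthetic nanobody library was expressed on Saccharomyces cerevisiae BJ5465 by galactose induction for 36–48 hours. The library was stained for 1 hour at 4 °C with 10% biotinylated, detergent-solubilized Sf9 membrane reagent and enriched with streptavidin microbeads before FACS. Low and high (top ~1%) gates were set on anti-HA fluorescence for expression and streptavidin fluorescence for reagent binding, and each polyreactivity label reflects the gate of origin.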

Sequence	polyreactivity (PSR sort gate)
QVQLVESGGGLVQAGGSLRLSCAASGLTLYTYAMGWYRQAPGKERELVAAISKNGGRTYYADSVKGRFTISRDNANNTVYLQMNSLKPEDTAVYYCAARARVGSVTFDYWGQGTQVTVSS	high polyreactivity
QVQLVESGGGLVQAGGSLRLSCAASGRIFARNAMGWYRQAPGKERELVAAISSSGGTYYADSVKGRFTISRDNAKNTVYLQMNSLKPEDTAVYYCNARVRTQQRWVDYWGQGTQVTVSS	high polyreactivity
QVQLVESGGGLVKAGGSLRLSCASSGYIFPFNAMGWYRQAPGKERELVAAITNGGRTYYADSVKGRFTISRDNAKNTVYLQMNSLKPDDTSVYYCAAGSKSDMDWGQGTQVTVSS	low polyreactivity
QVQLVESGGGLVQAGGSLRLSCAASGRILKVYAMGWYRQAPGKERELVAAISVNGGRTYYADSVKGRFTISRDNAKNTVYLQMNSLKPEDTAVYYCAKRLYKPGNVFYSVDQSDYWGQGTQVTVSS	low polyreactivity
QVQLVESGGGLVQAGGSLRLSCAASGRTFNIYAMGWYRQAPGKERELVAAISSGGSTYYADSVKGRFTISRDNAKNTVYLQMNSLKPEDTAVYYCAAVEFELRGDYWGQGTQVTVSS	low polyreactivity
QVQLVESGGGLVQAGGSLRLSCAASGRIYKRYDMGWYRQAPGKERELVAAITGTGGSTYYADSVKGRFTISRDNAKNTVYLQMNSLKPEDTAVYYCAARLYNTYSGFAFGYWGQGTQVTVSS	high polyreactivity
QDQLVESGGGLDQAGGSLRLSCAASGRIFKLYAMGWYRQAPGKERELVAAISKSGGNTYADSVKGRFTISRDNAKNTVYLQMNSLKPEETAVYYCAATVQSTSDPFDYWGQGTQVTVSS	low polyreactivity
QVQIVESGGGLVQAGGSLRLSCAASGSIFSDYVMGWYRQAPRKERELVATISRGGGSTFYADSVKGRFTISRDYAKITVYLQMNSLKPEDTAVYYCAAPPGPSGAKYDYWGQGTQVSVSS	low polyreactivity
QVQLVESGGGLVQAGGSLRLSCAASGSTFRYYAMGWYRQAPGKERELVAAISYGGGITNYADSVKGRLTISRDNAKNTVYLQMNSLKPEDTAVYYCAAYDRITRYDYWGQGTQVTVSS	high polyreactivity
QVQLVESGGGLVQAGGSLRLSCAASGSTFWTNAMGWYRQAPGKERELVAGITDTDNHELRRLCEGRFTISRDNAKNTVYVQMNSLKPEDTAVYYCNADDTYYPLGGITGYDYWGQGTQVTVSS	low polyreactivity
QVQLVESGGGLVQAGGSLRLSCPDSGRIFFLYAMGWYRQAPGKERELVAAITKSGGSTYADSVKGRFTISRDNAKNTVFLQMNSLIPEDTAVYYCAADLFTDLYDSWGQGTQVTVSS	low polyreactivity
QVQQVESGGGLVQAGGSLRLSSAASGITFRYYAMGWYRQAPGKERELVAAISSTGGSSYYADSVKGRFTISRDNAKNTVYLQMNSLKPEDTAVYYCNTQYNSQYDYWGQGTQVTVSS	high polyreactivity
QVQLVESGGGLDQAGGSLRLSCAASGSTFPSNAMGWYRQAPGNESEFVAAITFRGGRTYYADSVKGRFTISRDNAKNTVYLQMNSLKREDTAVYYCAAERWWYTVRGYGYWGQGTQVTVSS	high polyreactivity
QVQLVESGGGLVQAGGTLRLTCAASGLTFGSNAMGWYRTAPGKERELVAAISVSGSTYYADSVKGRFTISRDNAKNTVYLLMNSLKPEDTAVYYCATYWAAGSRSRYASWGQGTQVTVSS	high polyreactivity
QVQLVESGGGLVQAGGSLRLICAASGLTFFLYPMGWYRPAPGKERELVAAISSRGGSTYYADSVKGRFTISRDKAKNTVYLQMYSLKPEDTAVYYCADATKGDEDYWGQGTQVTVSS	high polyreactivity
QVQLVESGGGLVQAGGSLRLSCAASGITFVYYTMGWYRQAPGKERELVAAISSTGGSTYYADSVKGRFTISRDNAKNTVYLQMNSLKPEDTAVYYCAADARTFGGYGYWGQGTQVTVAS	high polyreactivity
